Experiments:
[1] = target: T1, estrogen receptor alpha (ERα) (human (endogenous in MCF-7 and T-47D)), P03372; assay: structured illumination microscopy (N-SIM) of double immunofluorescence; MCF-7 cells, formalin-fixed paraffin cell-block sections; two primary antibodies, Alexa Fluor 488 and 594 secondaries; % of ER dimer = yellow area/(yellow + green + red areas) x 100; homodimer also followed with 10 nM E2 for 15, 45, 90 min; conditions: remark: other sources report otherwise
T1 chain: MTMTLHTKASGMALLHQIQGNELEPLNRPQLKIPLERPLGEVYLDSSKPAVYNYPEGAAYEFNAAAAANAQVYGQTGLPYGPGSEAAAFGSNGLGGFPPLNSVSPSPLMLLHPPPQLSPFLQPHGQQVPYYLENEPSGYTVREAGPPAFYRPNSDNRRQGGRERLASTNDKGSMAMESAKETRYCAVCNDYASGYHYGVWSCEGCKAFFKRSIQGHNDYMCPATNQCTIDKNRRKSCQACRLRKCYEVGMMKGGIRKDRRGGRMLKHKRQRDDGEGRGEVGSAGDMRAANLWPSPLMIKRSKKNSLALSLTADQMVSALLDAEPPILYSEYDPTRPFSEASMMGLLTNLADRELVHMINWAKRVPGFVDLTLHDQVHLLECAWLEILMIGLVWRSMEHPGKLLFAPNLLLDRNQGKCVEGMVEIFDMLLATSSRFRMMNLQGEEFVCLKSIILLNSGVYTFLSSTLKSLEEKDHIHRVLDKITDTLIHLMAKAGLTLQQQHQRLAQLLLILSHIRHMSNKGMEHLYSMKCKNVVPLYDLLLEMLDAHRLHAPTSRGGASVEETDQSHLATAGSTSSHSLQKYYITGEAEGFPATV

[2] = target: T1, estrogen receptor alpha (ERα) (human …); assay: structured illumination microscopy (N-SIM) of double immunofluorescence; T-47D cells, formalin-fixed paraffin cell-block sections; two primary antibodies, Alexa Fluor 488 and 594 secondaries; % of ER dimer = yellow area/(yellow + green + red areas) x 100; conditions: remark: other sources report otherwise

% of ER dimer (N-SIM) [1]: 23%
% of ER dimer (N-SIM) [2]: 13.4%
B1: estrogen receptor alpha (ERα), P03372 1-595 (receptor)
chain: MTMTLHTKASGMALLHQIQGNELEPLNRPQLKIPLERPLGEVYLDSSKPAVYNYPEGAAYEFNAAAAANAQVYGQTGLPYGPGSEAAAFGSNGLGGFPPLNSVSPSPLMLLHPPPQLSPFLQPHGQQVPYYLENEPSGYTVREAGPPAFYRPNSDNRRQGGRERLASTNDKGSMAMESAKETRYCAVCNDYASGYHYGVWSCEGCKAFFKRSIQGHNDYMCPATNQCTIDKNRRKSCQACRLRKCYEVGMMKGGIRKDRRGGRMLKHKRQRDDGEGRGEVGSAGDMRAANLWPSPLMIKRSKKNSLALSLTADQMVSALLDAEPPILYSEYDPTRPFSEASMMGLLTNLADRELVHMINWAKRVPGFVDLTLHDQVHLLECAWLEILMIGLVWRSMEHPGKLLFAPNLLLDRNQGKCVEGMVEIFDMLLATSSRFRMMNLQGEEFVCLKSIILLNSGVYTFLSSTLKSLEEKDHIHRVLDKITDTLIHLMAKAGLTLQQQHQRLAQLLLILSHIRHMSNKGMEHLYSMKCKNVVPLYDLLLEMLDAHRLHAPTSRGGASVEETDQSHLATAGSTSSHSLQKYYITGEAEGFPATV

Reference: paper PMC5433938
